Assay results as given in PMC6026870, “Selective induction of cancer cell death by VDAC1‐based peptides and their potential use in cancer therapy” (Molecular Oncology, 2018).
Ends that are not written are not given here.

B2: Human hexokinase I (HK‐I), recombinant (enzyme, UniProt P19367 1-917, looked up)
chain: MIAAQLLAYYFTELKDDQVKKIDKYLYAMRLSDETLIDIMTRFRKEMKNGLSRDFNPTATVKMLPTFVRSIPDGSEKGDFIALDLGGSSFRILRVQVNHEKNQNVHMESEVYDTPENIVHGSGSQLFDHVAECLGDFMEKRKIKDKKLPVGFTFSFPCQQSKIDEAILITWTKRFKASGVEGADVVKLLNKAIKKRGDYDANIVAVVNDTVGTMMTCGYDDQHCEVGLIIGTGTNACYMEELRHIDLVEGDEGRMCINTEWGAFGDDGSLEDIRTEFDREIDRGSLNPGKQLFEKMVSGMYLGELVRLILVKMAKEGLLFEGRITPELLTRGKFNTSDVSAIEKNKEGLHNAKEILTRLGVEPSDDDCVSVQHVCTIVSFRSANLVAATLGAILNRLRDNKGTPRLRTTVGVDGSLYKTHPQYSRRFHKTLRRLVPDSDVRFLLSESGSGKGAAMVTAVAYRLAEQHRQIEETLAHFHLTKDMLLEVKKRMRAEMELGLRKQTHNNAVVKMLPSFVRRTPDGTENGDFLALDLGGTNFRVLLVKIRSGKKRTVEMHNKIYAIPIEIMQGTGEELFDHIVSCISDFLDYMGIKGPRMPLGFTFSFPCQQTSLDAGILITWTKGFKATDCVGHDVVTLLRDAIKRREEFDLDVVAVVNDTVGTMMTCAYEEPTCEVGLIVGTGSNACYMEEMKNVEMVEGDQGQMCINMEWGAFGDNGCLDDIRTHYDRLVDEYSLNAGKQRYEKMISGMYLGEIVRNILIDFTKKGFLFRGQISETLKTRGIFETKFLSQIESDRLALLQVRAILQQLGLNSTCDDSILVKTVCGVVSRRAAQLCGAGMAAVVDKIRENRGLDRLNVTVGVDGTLYKLHPHFSRIMHQTVKELSPKCNVSFLLSEDGSGKGAALITAVGVRLRTEASS
modifications: fluorescently labeled using a NanoTemper BLUE protein‐labeling kit (in the MST)

Tests used:
[1] = system: PWR‐1E; experiment: Cell death, PI staining and FACS; type: cell-based; conditions: 6 h, PI/FACS (Fig. 2G)
Protocol: (§1) Leukemia cells, U‐937, MEC‐1 cells (4 × 10^5 or 8 × 10^5 cells/sample, respectively), as well as other leukemia or suspension cell lines, were incubated in 200 μL serum‐free medium with various concentrations of the peptide for 90 min at 23–25 °C, collected by centrifugation (500 g, 5 min), washed with PBS, and analyzed for cell death. Adherent cells (6 × 10^5 mL^−1 at 70–80% confluence) were incubated with the peptide of interest in 500 μL serum‐free recommended culture medium for 3–6 h at 37 °C and 5% CO2. The cells were then trypsinized, centrifuged (1500 g, 5 min), washed with PBS, and analyzed for the desired activity. Following peptide treatment, cells were subjected to cell death analysis. […] PRO software (BD Biosciences, San Jose, CA, USA).
(§2) For each line, cells were incubated with different peptide concentrations, and cell death was determined by PI staining and FACS analysis (Figs 1, 2, 3).

[2] = system: T‐Rex‐293; experiment: Cell death, PI staining and FACS; type: cell-based, human
Protocol: as §1, §2

[3] = system: PANC1; experiment: Cell death, PI staining and FACS; type: cell-based; conditions: PANC1 (Group 3, Fig. 1H); 6 h; about 10% in the absence of peptides
Protocol: as §1, §2

[4] = target: T1, Human hexokinase II (HK‐II), recombinant (human, UniProt P52789 1-917, fluorescently labeled using a NanoTemper BLUE protein‐labeling kit (in the MST)); experiment: MST
T1 chain: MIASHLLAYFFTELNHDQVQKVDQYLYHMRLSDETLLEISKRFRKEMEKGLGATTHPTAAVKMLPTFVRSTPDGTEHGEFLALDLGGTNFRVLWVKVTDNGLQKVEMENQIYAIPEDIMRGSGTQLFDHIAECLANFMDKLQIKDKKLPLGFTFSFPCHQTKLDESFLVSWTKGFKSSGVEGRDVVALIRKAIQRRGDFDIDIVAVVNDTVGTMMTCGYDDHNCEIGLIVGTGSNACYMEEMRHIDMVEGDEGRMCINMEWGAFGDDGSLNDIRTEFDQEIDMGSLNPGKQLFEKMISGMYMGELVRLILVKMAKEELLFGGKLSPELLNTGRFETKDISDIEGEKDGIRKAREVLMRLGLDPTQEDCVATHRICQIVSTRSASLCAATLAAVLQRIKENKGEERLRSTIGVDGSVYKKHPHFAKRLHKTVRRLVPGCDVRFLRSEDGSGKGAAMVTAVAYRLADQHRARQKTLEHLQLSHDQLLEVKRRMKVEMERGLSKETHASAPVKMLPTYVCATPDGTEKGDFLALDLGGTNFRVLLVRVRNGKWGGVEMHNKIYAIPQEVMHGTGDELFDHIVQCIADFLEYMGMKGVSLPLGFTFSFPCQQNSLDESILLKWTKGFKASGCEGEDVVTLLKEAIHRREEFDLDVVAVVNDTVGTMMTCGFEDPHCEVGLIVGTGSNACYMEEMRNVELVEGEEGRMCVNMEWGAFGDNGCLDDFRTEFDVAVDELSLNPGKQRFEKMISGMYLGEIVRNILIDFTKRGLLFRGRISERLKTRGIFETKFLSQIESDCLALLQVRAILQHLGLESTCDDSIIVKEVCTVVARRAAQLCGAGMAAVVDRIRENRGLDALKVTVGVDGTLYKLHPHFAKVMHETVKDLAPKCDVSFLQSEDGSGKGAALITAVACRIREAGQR

[5] = target: T2, Human hexokinase II (HK‐II), recombinant (human, UniProt P52789 1-917, fluorescently labeled using a NanoTemper BLUE protein‐labeling kit (in the MST)); experiment: MST; fluorescently labeled HK‐I (830 nM) or HK‐II (100 nM) incubated 20 min with peptide (1–100 μM) in PBS; NanoTemper Monolith‐NT115, 40% LED, 40% IR laser power; conditions: both partners purified
T2 construct: hexokinase II (HK‐II), human, cloned into plasmid pET‐His; source: E. coli BL21, IPTG induction, purified (HiTrap nickel column, Blue HiTrap column)
T2 sequence (looked up): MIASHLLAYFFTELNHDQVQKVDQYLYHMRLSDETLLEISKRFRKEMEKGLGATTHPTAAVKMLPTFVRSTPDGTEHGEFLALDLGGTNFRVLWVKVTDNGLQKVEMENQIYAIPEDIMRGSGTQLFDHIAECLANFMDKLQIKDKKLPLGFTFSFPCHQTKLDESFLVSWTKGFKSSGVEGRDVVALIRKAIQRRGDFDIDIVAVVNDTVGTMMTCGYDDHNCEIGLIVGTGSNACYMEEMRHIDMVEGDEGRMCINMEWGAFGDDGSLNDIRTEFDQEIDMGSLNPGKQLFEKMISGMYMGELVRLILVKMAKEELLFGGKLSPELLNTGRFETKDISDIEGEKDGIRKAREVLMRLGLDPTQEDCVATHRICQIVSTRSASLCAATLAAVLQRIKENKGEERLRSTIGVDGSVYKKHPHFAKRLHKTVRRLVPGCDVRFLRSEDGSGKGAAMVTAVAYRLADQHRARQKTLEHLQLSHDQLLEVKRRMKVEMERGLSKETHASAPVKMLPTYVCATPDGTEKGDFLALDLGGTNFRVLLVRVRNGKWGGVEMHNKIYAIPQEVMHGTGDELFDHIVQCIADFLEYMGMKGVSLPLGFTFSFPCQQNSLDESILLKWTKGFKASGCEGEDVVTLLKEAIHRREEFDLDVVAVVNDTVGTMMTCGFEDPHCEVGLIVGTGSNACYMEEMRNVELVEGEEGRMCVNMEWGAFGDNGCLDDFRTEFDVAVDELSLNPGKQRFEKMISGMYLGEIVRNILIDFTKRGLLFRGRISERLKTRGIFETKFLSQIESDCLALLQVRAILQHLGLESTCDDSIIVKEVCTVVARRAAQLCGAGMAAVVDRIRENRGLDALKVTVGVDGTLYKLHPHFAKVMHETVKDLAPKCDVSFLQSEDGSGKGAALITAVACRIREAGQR

[6] = target: B2; experiment: as above; conditions: both partners purified
[7] = target: voltage‐dependent anion channel 1 (VDAC1) (human (endogenous in HeLa), UniProt P21796 1-283); experiment: cell-based or functional assay

## HAIYPRHSWTWE-199-KKLETA VNLAWTAGNSN-216-KWTWK [Tf‐LP4]
[1]
  cell death induction in noncancerous cells: almost no cell death induction
[2]; T‐Rex‐293, 6 h, PI/FACS (Fig. 2E)
  cell death induction in noncancerous cells: almost no cell death induction

## MAVPPTYADLGKSARDVFTKGYGFGLRQIKIWFQNRRMKWKK [N‐Ter‐Antp]
[3]
  steady‐state level of cell death: about 50%
[2]; T‐Rex‐293 (Group 3, Fig. 1I), 6 h, about 10% in the absence of peptides
  steady‐state level of cell death: about 50%

B1: Antp‐LP4 (peptide)
peptide: RQIKIWFQNRRMKWKKSWTWEKKLETAVNLAWTAGNSNKWTWK
notes: amino acids added to form a loop‐shaped tryptophan zipper (N‐terminal arm); amino acids added to form a loop‐shaped tryptophan zipper (C‐terminal arm); 43 residues as printed; source: synthetic peptide (GL Biochem, > 85% purity)
[4]
  Kd: 7.1 µM
[5]
  binding result: binds
[6]
  binding result: binds

## B2
[7]
  HK‐I in the cytosolic fraction (0.025% digitonin fractionation, immunoblot) of A549 cells treated with Tf‐D‐LP4 (3, 5, 10 μM, 3 h): ~2 fold
  HK‐I in the cytosolic fraction (0.025% digitonin fractionation, immunoblot) of HeLa cells treated with R‐Tf‐D‐LP4 (3, 5, 10 μM, 3 h): ~2 fold
